Measurements published in paper doi:10.1101/2023.01.17.524398.

Target: Aplysia punctata ink toxin (APIT), recombinant (Aplysia punctata)
Assay: MALDI mass spectrometry

Question: Which stoichiometry N does the source give for “Aplysia punctata ink toxin (APIT), recombinant (enzyme)” here?
Answer: 2
